Residue numbers refer to the chain shown, from its start. In names and notes the source's numbering stands. Like-named read-outs stand apart in the source and are kept apart here.
Assays:
[1] = test system: cocaine-induced lethality; experiment: Cocaine toxicity in mice, incl. repeated CocE doses; format: in vivo, mouse
Excerpt: The animal toxicity model was similar to that described previously, except as described. Male NIH Swiss mice were used. For tail intravenous injection, mice are placed in a small restraint chamber that exposes their tail. A heat lamp with an infrared, 250 w bulb is placed about 4 inches from the tail, and left for a couple of minutes. The tail is then cleansed with an alcohol wipe and a 30 G ½ precision glide needle (Fisher Scientific), is inserted into one of the side veins for infusion. To verify whether the needle is in the vein a small amount of drug is infused, if in the correct location the solution should infuse easily without any indication of an incorrect subcutaneous location, which appears white at the site of injection. For intravenous catheterization, Male NIH Swiss mice are anesthetized with ketamine 100 mg/kg and xylazine 10 mg/kg co-administered i.p. When mice are no longer responsive to paw pressure, the neck is shaved and prepped by alternating Betadine and alcohol wipes. Under clean conditions, a right transverse neck incision is made and the external jugular vein is isolated. A catheter is inserted into the vein with the aid of a dissecting microscope to the level of the right atrium, and is secured in the vein with nylon, 4-0 sutures and tissue adhesive, 3M Vetbond (3M Animal Care Products, St. Paul, Minn.). The catheters are a short length of Tygon tubing with an inner diameter of 0.010 in. and an outer diameter of 0.030 in. (Small Parts, Inc., Miami Lakes, Fla.). A small incision is made in the middle of the animal's back, and a trocar inserted subcutaneously to exit at the ventral incision site. The catheter is then pulled through the trocar and brought out the animal's back where it is held in place with nylon suture material and the tissue adhesive. A short piece of steel wire with a diameter of 0.011 in. (Small Parts, Inc., Miami Lakes, Fla.) is inserted into the end of the catheter. The ventral incision is closed with 4-0 Vicryl suture material and the mouse placed under a heat lamp for recovery. Approximately an hour later, the mouse is returned to its home cage.
Mice that survived a first administration of the combination of 0.32 mg CocE and 320 mg/kg cocaine were given this combination again, 14 days following the initial administration.

[2] = cited from earlier work
[3] = humans; cited from earlier work
[4] = Cocaine blood levels and lethal concentrations in the rat (literature)
[5] = test system: cocaine-induced lethality; experiment: Rodent model of acute cocaine toxicity (convulsions and lethality) in rats
[6] = against (-) cocaine; cited from earlier work
[7] = test system: cocaine-induced lethality; conditions: rats; cited from earlier work
[8] = Non-denaturing polyacrylamide gel electrophoresis after incubation at 37° C. (aggregation); format: physicochemical; conditions: non-denaturing gels, 0.1 mg/ml
Description: Plasmids containing the mutations were transformed into E. coli BL21 cells and IPTG-induced enzyme was purified on Ni-Agarose. Expressed proteins were then tested for enzymatic activity and for thermostability at 37° C. Enzyme activity was measured using the spectrophotometric assay as described in Example 1. Thermostability was also tested via the spectrophotometric assay by pre-incubation of both wild-type and mutants at 37° C. for various times. Additionally, the nature of the thermo-instability of both the wild-type and T172R mutant was analyzed by polyacrylamide gel electrophoresis under denaturing and non-denaturing conditions. Briefly, mutant and wild-type enzyme at 0.1 mg/ml were incubated at 37° C. for various time-points, cooled to 4° C., mixed with SDS-loading dye containing-mercaptoethanol and run on 10% SDS-PAGE gels (denaturing conditions) or run on native 10% polyacrylamide gels (non-denaturing conditions) at 4° C. Gels were fixed with 10% methanol, 7% acetic acid for 30 minutes, and then stained with Sypro-Ruby protein gel stain (Molecular Probes, Invitrogen) for 3 hours. […] Finally, the exact melting temperature of both the wild-type and T172R mutant were determined by circular dichroism using a JASCO-810 spectropolarimeter driven by a JASCO V500/FP-750 analysis program for Windows. The CD spectra were measured in millidegrees and normalized against PBS buffer.

[9] = Melting temperature by circular dichroism (near-UV); format: physicochemical
Description: Plasmids containing the mutations were transformed into E. coli BL21 cells and IPTG-induced enzyme was purified on Ni-Agarose. Expressed proteins were then tested for enzymatic activity and for thermostability at 37° C. Enzyme activity was measured using the spectrophotometric assay as described in Example 1. Thermostability was also tested via the spectrophotometric assay by pre-incubation of both wild-type and mutants at 37° C. for various times. Additionally, the nature of the thermo-instability of both the wild-type and T172R mutant was analyzed by polyacrylamide gel electrophoresis under denaturing and non-denaturing conditions. Briefly, mutant and wild-type enzyme at 0.1 mg/ml were incubated at 37° C. for various time-points, cooled to 4° C., mixed with SDS-loading dye containing-mercaptoethanol and run on 10% SDS-PAGE gels (denaturing conditions) or run on native 10% polyacrylamide gels (non-denaturing conditions) at 4° C. Gels were fixed with 10% methanol, 7% acetic acid for 30 minutes, and then stained with Sypro-Ruby protein gel stain (Molecular Probes, Invitrogen) for 3 hours. Protein staining was visualized under UV-light using an AlphaImager™ 3400 (Alpha Innotech). Finally, the exact melting temperature of both the wild-type and T172R mutant were determined by circular dichroism using a JASCO-810 spectropolarimeter driven by a JASCO V500/FP-750 analysis program for Windows. The CD spectra were measured in millidegrees and normalized against PBS buffer.

[10] = Low-UV CD spectra melt with CCA deconvolution; format: physicochemical
Description: Low-UV CD spectra data were obtained using an Aviv Spectropolarimeter Mode 400, with the help of Norma Greenfield, UMDNJ, using a 5-cell holder and 0.2 mg/ml protein concentrations. Raw data values obtained were blanked on control PBS, smoothed, and deconvoluted using the CCA algorithm as described by A. Perczel, K. Park, and G. D. Fasman, [Analysis of the circular dichroism spectrum of proteins using the convex constraint algorithm: a practical guide. Analytical Biochemistry 203, 83-93 (1992).] This algorithm finds the minimum number of curves needed to reconstruct a data set, and expresses the percentage each curve contributes to the data set as a function of temperature.
Below is presented a low UV CCA denconvolution analysis of CocE WT and 4 mutants, obtained in a single CD spectra melt using a 5-cell holder. The experiment was performed over the period of 8 hours, from 0-80° C.
Temperature dependent melting was observed between the wavelengths tested (200-250 nm), and the smoothed spectra for each mutant are shown in FIG. 29. […] Dose response analysis was used to approximate the temperature at which the initial spectra melts (1), the formation and melt of the intermediate state (2), and the accumulation of the fully melted protein (3).

[11] = Cocaine spectrophotometric assay (240 nm), Michaelis-Menten kinetics
[12] = CocE activity recovered after pegylation (initial rates of cocaine hydrolysis); conditions: m-PEG 5.5 KDa, preliminary
[13] = Gel filtration of samples incubated at 37° C.; format: physicochemical
Description: Higher Km values on day 3 were due to reuse of old cocaine.
Protection from aggregation of thermal stable CocE mutants was assessed using size exclusion chromatography. Briefly, enzymes were preincubated at 37° C. for 0 minutes or 60 minutes and resolved by size exclusion chromatography.

For COC(=O)[C@H]1[C@@H](OC(=O)c2ccccc2)C[C@@H]2CC[C@H]1N2C [cocaine], the time to death ([1]; 180 mg/kg i.p. cocaine alone, mice) is given as “about 3 min”, the “time of peak plasma levels” value ([2]; after an intraperitoneal injection) is given as “about 13 minutes” and the lethal blood concentrations ([2]; rat) is given as 50 to 128 µM. For the same molecule, the lethal concentrations [3] was 20 to 200 µM, the “estimated peak cocaine blood concentration” value ([4]; 100 mg/kg cocaine i.p.) was 35 µM and the “estimated peak cocaine blood concentration” value ([4]; 320 mg/kg cocaine i.p.) was 113 µM. The “animals in which death was observed” value ([5]; 100 mg/kg cocaine, rats) was 100% and the “time to death after administration” value ([5]; 100 mg/kg cocaine, rats) was “less than 15 minutes”.

B1: BChE: serum butyrylcholinesterase (protein, UniProt P06276 29-602, looked up)
Cholinesterase: EDDIIIATKNGKVRGMNLTVFGGTVTAFLGIPYAQPPLGRLRFKKPQSLTKWSDIWNATKYANSCCQNIDQSFPGFHGSEMWNPNTDLSEDCLYLNVWIPAPKPKNATVLIWIYGGGFQTGTSSLHVYDGKFLARVERVIVVSMNYRVGALGFLALPGNPEAPGNMGLFDQQLALQWVQKNIAAFGGNPKSVTLFGESAGAASVSLHLLSPGSHSLFTRAILQSGSFNAPWAVTSLYEARNRTLNLAKLTGCSRENETEIIKCLRNKDPQEILLNEAFVVPYGTPLSVNFGPTVDGDFLTDMPDILLELGQFKKTQILVGVNKDEGTAFLVYGAPGFSKDNNSIITRKEFQEGLKIFFPGVSEFGKESILFHYTDWVDDQRPENYREALGDVVGDYNFICPALEFTKKFSEWGNNAFFYYFEHRSSKLPWPEWMGVMHGYEIEFVFGLPLERRDNYTKAEEILSRSIVKRWANFAKYGNPNETQNNSTSWPVFKSTEQKYLTLNTESTRIMTKLRAQQCRFWTSFFPKVLEMTGNIDEAEWEWKAGFHRWNNYMMDWKNQFNDYTSKKESCVGL
In the case of B1, the “change in the dose of cocaine necessary to kill the mice” value ([1]; 1 mg) is listed as “slight increase”, the time to death ([1]; 1 mg) is listed as “not modified” and the Kcat [6] is listed as 0.0683 s⁻¹. The Km [6] was 4.5 µM, the “treatment required for protection against an LD50 dose of cocaine” value [7] was 10 mg/kg and the “protection against cocaine-induced lethality” value ([5]; 13 mg (10-times molar equivalent dose), one minute before 180 mg/kg cocaine) was “no protection”.

B2: T172R: mutant CocE polypeptide, SEQ ID NO: 25 (protein)
chain: MVDGNYSVASNVMVPMRDGVRLAVDLYRPDADGPVPVLLVRNPYDKFDVFAWSTQSTNWLEFVRDGYAVVIQDTRGLFASEGEFVPHVDDEADAEDTLSWILEQAWCDGNVGMFGVSYLGVTQWQAAVSGVGGLKAIAPSMASADLYRAPWYGPGGALSVEALLGWSALIGRGLITSRSDARPEDAADFVQLAAILNDVAGAASVTPLAEQPLLGRLIPWVIDQVVDHPDNDESWQSISLFERLGGLATPALITAGWYDGFVGESLRTFVAVKDNADARLVVGPWSHSNLTGRNADRKFGIAATYPIQEATTMHKAFFDRHLRGETDALAGVPKVRLFVMGIDEWRDETDWPLPDTAYTPFYLGGSGAANTSTGGGTLSTSISGTESADTYLYDPADPVPSLGGTLLFHNGDNGPADQRPIHDRDDVLCYSTEVLTDPVEVTGTVSARLFVSSSAVDTDFTAKLVDVFPDGRAIALCDGIVRMRYRETLVNPTLIEAGEIYEVAIDMLATSNVFLPGHRIMVQVSSSNFPKYDRNSNTGGVIAREQLEEMCTAVNRIHRGPEHPSHIVLPIIKR
modifications: Mutant CocE polypeptide
In the case of B2, the “half-life at 37° C. relative to the wildtype” value [8] is reported as roughly 8 ×, the “increased melting temperature compared to the wild-type CocE” value [9] is reported as 5 degrees and the detectable denaturation beginning ([9]; near-UV CD) is reported as “approximately 28 °C”. The melting temperature ([9]; near-UV CD (260-320 nm), curve-fitting) was 41.43 °C, the “#3 formation” value ([10]; accumulation of the fully melted protein) was 56.85 °C and the “#2 formation” value ([10]; formation of the intermediate state) was 38.11 °C. For the same molecule, the “#1 melt” value ([10]; initial spectra melts, 0.2 mg/ml) was 39.22 °C, the “#2 melt” value ([10]; melt of the intermediate state) was 54.56 °C and the Km ([11]; 40 min @ 37° C.) was 78.8 µM. For the same molecule, the Km ([11]; no preincubation) was 88.2 µM, the “duration of prophylactic effects” value ([5]; 0.32 mg given 1, 10, 30, 60 minutes before 320 mg/kg cocaine) was “longer lasting than the wild-type CocE” and the lethality ([5]; 0.32 mg i.v. one minute after 1 g/kg cocaine i.p., rats) was “about 70%”.

B3: PEG-CocE: wild-type CocE linked with monomethoxy-PEG polymers (MW 5.5 KDa), mixture with 1 to 4 PEG chains (conjugate, UniProt Q9L9D7 1-574, looked up)
Cocaine esterase: B2 chain with R172T
modifications: monomethoxy-PEG 5.5 kDa, 1-4 chains
With B3 the “initial CocE activity recovered after the pegylation reaction” value [12] was greater than 70%.

B4: N197K (protein)
chain: MVDGNYSVASNVMVPMRDGVRLAVDLYRPDADGPVPVLLVRNPYDKFDVFAWSTQSTNWLEFVRDGYAVVIQDTRGLFASEGEFVPHVDDEADAEDTLSWILEQAWCDGNVGMFGVSYLGVTQWQAAVSGVGGLKAIAPSMASADLYRAPWYGPGGALSVEALLGWSALIGTGLITSRSDARPEDAADFVQLAAILKDVAGAASVTPLAEQPLLGRLIPWVIDQVVDHPDNDESWQSISLFERLGGLATPALITAGWYDGFVGESLRTFVAVKDNADARLVVGPWSHSNLTGRNADRKFGIAATYPIQEATTMHKAFFDRHLRGETDALAGVPKVRLFVMGIDEWRDETDWPLPDTAYTPFYLGGSGAANTSTGGGTLSTSISGTESADTYLYDPADPVPSLGGTLLFHNGDNGPADQRPIHDRDDVLCYSTEVLTDPVEVTGTVSARLFVSSSAVDTDFTAKLVDVFPDGRAIALCDGIVRMRYRETLVNPTLIEAGEIYEVAIDMLATSNVFLPGHRIMVQVSSSNFPKYDRNSNTGGVIAREQLEEMCTAVNRIHRGPEHPSHIVLPIIKRLEHHHHHH
modifications: Mutant CocE polypeptide
For B4, the gel filtration result [13] was “formation of aggregates”, the Km ([11]; Day 0, (0) at 37° C.) was 34.8 µM and the Km ([11]; Day 0, (60) at 37° C.) was 24.2 µM. The Km ([11]; Day 3 repeat, (0), old cocaine reused) was 102 µM, the Km ([11]; Day 3 repeat, (60), old cocaine reused) was 114 µM and the “stability after 1 hour at 37° C.” value ([11]; day 0, preliminary) was “good stability”.
